Experimental data taken from US20220380463A1 (Adimab, published 2022).
Numbering of substitutions follows the chain as printed.

Columns and labels:
[1] = biological target: T1, human CD3 on CD3+ Jurkat cells (human, UniProt P07766 23-207); assay: flow cytometry on CD3+ Jurkat cells, ratio of MFI at pH 6.0 to pH 7.4
T1 construct: whole, on cells; Native CD3 complex on cells; the other CD3 chains are not specified for this assay; also called Human CD3+ Jurkat
In short: (§1)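 Jurkat cells incubated 20 min on ice with 100 nM yeast-produced IgG in PBS + 0.1% BSA at pH 6.0 or pH 7.4, with all washes and staining at the same pH. Bound antibody detected with anti-human IgG-RPE, dead cells excluded by propidium iodide; MFI measured by flow cytometry.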

[2] = biological target: T1, human CD3 on CD3+ Jurkat cells; assay: flow cytometry, 100 nM IgG on CD3+ Jurkat cells, pH 6.0
In short: as §1

[3] = biological target: T1, human CD3 on CD3+ Jurkat cells; assay: flow cytometry, 100 nM IgG on CD3+ Jurkat cells, pH 7.4
In short: as §1

T1 sequence (P07766 23-207): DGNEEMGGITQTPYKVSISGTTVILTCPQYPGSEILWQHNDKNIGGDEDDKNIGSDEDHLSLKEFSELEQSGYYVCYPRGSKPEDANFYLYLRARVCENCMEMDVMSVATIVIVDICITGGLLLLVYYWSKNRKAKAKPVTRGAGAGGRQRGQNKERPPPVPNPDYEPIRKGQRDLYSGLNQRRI

B1: SAD10320_P02_F05 (ADI-48651) (antibody, V domains shown)
VH: QVQLVQSGAEVKKPGASVKVSCKASGFNIKDYYMHWVRQAPGQRLEWMGWIDLENANTIYDAKFQGRVTITRDTSASTAYMELSSLRSEDTAVYYCARDAYGRYHYDVWGQGTLVTVSS
VL: DIVMTQSPDSLAVSLGERATINCKSSQSLLNARTGKNYLAWYQQKPGQPPKLLIYWASTRESGVPDRFSGSGSGTDFTLTISSLQAEDVAVYYCKQSYRHRTFGGGTKVEIK
notes: IgG; also called Ab79
**Q.** For B1, which “MFI pH 6.0/MFI pH 7.4” value [1] is on record?
**A.** 1.4

**Q.** And the “MFI pH 6.0” value [2]?
**A.** 5620 MFI

**Q.** What about the “MFI pH 7.4” value [3] of the same binder?
**A.** 4110 MFI

B2: SAD10319_P01_A01 (ADI-48619) (antibody, V domains shown)
VH: QVQLVQSGAEVKKPGASVKVSCKASGYTFASYAMHWVRQAPGQRLEWMGWINPDTGNTVYSQKFQGRVTITRDTSASTAYMELSSLRSEDTAVYYCARDAYHHYFYDVWGQGTLVTVSS
VL: B1 VL with R99S, H100R
notes: IgG; also called Ab229
**Q.** What does the source list for B2?
**A.** MFI pH 6.0/MFI pH 7.4 [1]: 13.5; MFI pH 6.0 [2]: 1750 MFI; MFI pH 7.4 [3]: 129 MFI

B3: SAD10319_P02_G06 (ADI-48632) (antibody, V domains shown)
VH: B2 VH with A30T, N57A
VL: B1 VL with R99S, H100R
notes: IgG; also called Ab15
**Q.** Which results are given for B3?
**A.** MFI pH 6.0/MFI pH 7.4 [1]: 15.1; MFI pH 6.0 [2]: 1620 MFI; MFI pH 7.4 [3]: 107 MFI

B4: SAD10319_P01_C03 (ADI-48626) (antibody, V domains shown)
VH: B2 VH with A30T, S31D, A33D, N52D, D54Y, N57A, V59K, H102G
VL: B1 VL with R99S, H100R
notes: IgG; also called Ab244
**Q.** With B4 as the binder, how does the “MFI pH 6.0/MFI pH 7.4” value [1] read?
**A.** 8.6

**Q.** And the “MFI pH 6.0” value [2]?
**A.** 3160 MFI

**Q.** And the “MFI pH 7.4” value [3]?
**A.** 369 MFI

B5: SAD10319_P01_H02 (ADI-48625) (antibody, V domains shown)
VH: B2 VH with A30T, S31D, D54S, N57A
VL: B1 VL with R99S, H100R
notes: IgG; also called Ab242
**Q.** What does the source list for B5?
**A.** MFI pH 6.0/MFI pH 7.4 [1]: 13.6; MFI pH 6.0 [2]: 1730 MFI; MFI pH 7.4 [3]: 128 MFI

B6: SAD10319_P01_C01 (ADI-48621) (antibody, V domains shown)
VH: B2 VH with A30T, S31D, A33D, N52D, P53A, D54G, N57L, V59K, A100H, H102G
VL: B1 VL with R99S, H100R
notes: IgG; also called Ab230
**Q.** For B6, which “MFI pH 6.0/MFI pH 7.4” value [1] is on record?
**A.** 14.8

**Q.** What about the “MFI pH 6.0” value [2] of the same binder?
**A.** 731 MFI

**Q.** And the “MFI pH 7.4” value [3]?
**A.** 49 MFI

B7: SAD10319_P01_F03 (ADI-48627) (antibody, V domains shown)
VH: B2 VH with A30E, A33D, P53A, D54G, N57A
VL: B1 VL with R99S, H100R
notes: IgG; also called Ab246
**Q.** For B7, which “MFI pH 6.0/MFI pH 7.4” value [1] is on record?
**A.** 7.4

**Q.** What about the “MFI pH 6.0” value [2] of the same binder?
**A.** 335 MFI

**Q.** What about the “MFI pH 7.4” value [3] of the same binder?
**A.** 45 MFI

B8: SAD10319_P01_H01 (ADI-48623) (antibody, V domains shown)
VH: B2 VH with A30D, S31D, N52D, P53A, D54G, N57D, V59K, A100H, H103R
VL: B1 VL with R99S, H100R
notes: IgG; also called Ab235
**Q.** How did the “MFI pH 6.0/MFI pH 7.4” value [1] turn out when B8 was run?
**A.** 12

**Q.** What about the “MFI pH 6.0” value [2] of the same binder?
**A.** 1760 MFI

**Q.** What about the “MFI pH 7.4” value [3] of the same binder?
**A.** 147 MFI

B9: SAD10319_P02_A05 (ADI-48629) (antibody, V domains shown)
VH: B2 VH with A30D, D54N, N57A, V59T, A100H, H102G
VL: B1 VL with R99S, H100R
notes: IgG; also called Ab255
**Q.** B9 was tested. Which “MFI pH 6.0/MFI pH 7.4” value [1] did it give?
**A.** 3.6

**Q.** What about the “MFI pH 6.0” value [2] of the same binder?
**A.** 1780 MFI

**Q.** And the “MFI pH 7.4” value [3]?
**A.** 499 MFI

B10: SAD10319_P01_F02 (ADI-48624) (antibody, V domains shown)
VH: QVQLVQSGAEVKKPGASVKVSCKASGYTFESYDMHWVRQAPGQRLEWMGWIDAGTGNTKYSQKFQGRVTITADESTSTAYMELSSLRSEDTAVYYCARDHYGHYFYDVWGQGTLVTVSS
VL: B1 VL with R99S, H100R
notes: IgG; also called Ab241
**Q.** What does the source list for B10?
**A.** MFI pH 6.0/MFI pH 7.4 [1]: 15.4; MFI pH 6.0 [2]: 895 MFI; MFI pH 7.4 [3]: 58 MFI

B11: SAD10318_P03_E09 (ADI-48611) (antibody, V domains shown)
VH: QVQLVQSGAEVKKPGASVKVSCKASGFNIKDYYMHWVRQAPGQRLEWMGWIDLENANTIYDAKFQGRVTITRDTSASTAYMELSSLRSEDTAVYYCARDAYGHYHYDVWGQGTLVTVS
VL: B1 VL with K36H, Y38H, R99H
notes: IgG; also called Ab207
**Q.** With B11 as the binder, how does the “MFI pH 6.0/MFI pH 7.4” value [1] read?
**A.** 2.6

**Q.** And the “MFI pH 6.0” value [2]?
**A.** 123 MFI

**Q.** What about the “MFI pH 7.4” value [3] of the same binder?
**A.** 47 MFI

B12: SAD10318_P02_C05 (ADI-48597) (antibody, V domains shown)
VH: B1 VH with Y101H, G102H, H105F
VL: DIVMTQSPDSLAVSLGERATINCKSSQSLLNARTGHNHLAWYQQKPGQPPKLLIYWASTRESGVPDRFSGSGSGTDFTLTISSLQAEDVAVYYCKQSHSHRTFGGGTKVEI
notes: IgG; also called Ab180
**Q.** How did the “MFI pH 6.0/MFI pH 7.4” value [1] turn out when B12 was run?
**A.** 21.7

**Q.** And the “MFI pH 6.0” value [2]?
**A.** 1320 MFI

**Q.** What about the “MFI pH 7.4” value [3] of the same binder?
**A.** 61 MFI

B13: SAD10319_P02_E05 (ADI-48630) (antibody, V domains shown)
VH: B2 VH with A30D, A33I, N52D, P53A, D54G, N57A, H102G, V108H
VL: B1 VL with R99S, H100R
notes: IgG; also called Ab4
**Q.** How did the “MFI pH 6.0/MFI pH 7.4” value [1] turn out when B13 was run?
**A.** 1.1

**Q.** And the “MFI pH 6.0” value [2]?
**A.** 5540 MFI

**Q.** What about the “MFI pH 7.4” value [3] of the same binder?
**A.** 5060 MFI

B14: SAD10319_P02_D06 (ADI-48631) (antibody, V domains shown)
VH: B2 VH with A30T, S31D, P53A, D54G, N57A, V59I
VL: B1 VL with R99S, H100R
notes: IgG; also called Ab11
**Q.** Which results are given for B14?
**A.** MFI pH 6.0/MFI pH 7.4 [1]: 13.4; MFI pH 6.0 [2]: 3100 MFI; MFI pH 7.4 [3]: 232 MFI

B15: SAD10320_P03_F09 (ADI-48656) (antibody, V domains shown)
VH: B1 VH with R103H, Y104D, H105F
VL: B1 VL with R99H, H100R
notes: IgG; also called Ab101
**Q.** For B15, which “MFI pH 6.0/MFI pH 7.4” value [1] is on record?
**A.** 4.9

**Q.** What about the “MFI pH 6.0” value [2] of the same binder?
**A.** 185 MFI

**Q.** And the “MFI pH 7.4” value [3]?
**A.** 38 MFI

B16: SAD10320_P02_D05 (ADI-48650) (antibody, V domains shown)
VH: B1 VH with Y101T, G102H, H105F
VL: B12 VL with H36K, H38Y, S99T, H100R
notes: IgG; also called Ab77
**Q.** With B16 as the binder, how does the “MFI pH 6.0/MFI pH 7.4” value [1] read?
**A.** 1.1

**Q.** And the “MFI pH 6.0” value [2]?
**A.** 6010 MFI

**Q.** What about the “MFI pH 7.4” value [3] of the same binder?
**A.** 5430 MFI

B17: SAD10320_P03_D09 (ADI-48655) (antibody, V domains shown)
VH: B1 VH with R103H, Y104D, H105F
VL: B1 VL with Y98W, R99H, H100R
notes: IgG; also called Ab100
**Q.** With B17 as the binder, how does the “MFI pH 6.0/MFI pH 7.4” value [1] read?
**A.** 2

**Q.** What about the “MFI pH 6.0” value [2] of the same binder?
**A.** 1180 MFI

**Q.** What about the “MFI pH 7.4” value [3] of the same binder?
**A.** 581 MFI

B18: SAD10320_P04_G10 (ADI-48658) (antibody, V domains shown)
VH: B1 VH with R103H, Y104D, H105F
VL: B1 VL with R99S, H100R
notes: IgG; also called Ab108
**Q.** For B18, which “MFI pH 6.0/MFI pH 7.4” value [1] is on record?
**A.** 0.4

**Q.** What about the “MFI pH 6.0” value [2] of the same binder?
**A.** 113 MFI

**Q.** And the “MFI pH 7.4” value [3]?
**A.** 316 MFI

B19: SAD10320_P04_E10 (ADI-48657) (antibody, V domains shown)
VH: B1 VH with L45P, R103H, Y104D, H105F
VL: B1 VL with R99S, H100R
notes: IgG; also called Ab106
**Q.** With B19 as the binder, how does the “MFI pH 6.0/MFI pH 7.4” value [1] read?
**A.** 11.7

**Q.** And the “MFI pH 6.0” value [2]?
**A.** 786 MFI

**Q.** What about the “MFI pH 7.4” value [3] of the same binder?
**A.** 67 MFI

B20: SAD10320_P02_H05 (ADI-48652) (antibody, V domains shown)
VH: B1 VH with Y101H, G102H, H105F
VL: B1 VL with Y98H, R99S, H100R
notes: IgG; also called Ab81
**Q.** B20 was tested. Which “MFI pH 6.0/MFI pH 7.4” value [1] did it give?
**A.** 1.2

**Q.** What about the “MFI pH 6.0” value [2] of the same binder?
**A.** 5750 MFI

**Q.** And the “MFI pH 7.4” value [3]?
**A.** 4760 MFI

B21: SAD10320_P04_H11 (ADI-48662) (antibody, V domains shown)
VH: B1 VH with R103H, Y104V, H105F
VL: B1 VL with R99Q
notes: IgG; also called Ab116
**Q.** B21 was tested. Which “MFI pH 6.0/MFI pH 7.4” value [1] did it give?
**A.** 1.8

**Q.** And the “MFI pH 6.0” value [2]?
**A.** 81 MFI

**Q.** And the “MFI pH 7.4” value [3]?
**A.** 44 MFI
